The target of test [1] is T1, human IL-25 expressed with a C-terminal myc-myc-hexahistidine tag (human).
T1 construct: also called human IL-25-MMH; hIL-25-MMH
T1 chain: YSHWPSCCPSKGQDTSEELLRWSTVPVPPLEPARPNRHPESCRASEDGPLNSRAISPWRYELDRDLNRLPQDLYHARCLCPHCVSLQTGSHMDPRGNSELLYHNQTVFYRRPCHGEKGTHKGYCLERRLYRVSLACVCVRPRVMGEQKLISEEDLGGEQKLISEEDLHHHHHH
Kind of test: SPR Biacore, captured mAb, 25°C.
Procedure: (§1) Equilibrium dissociation constants (KD values) for IL-25 binding to purified anti-IL-25 antibodies were determined using a real-time surface plasmon resonance biosensor assay on a Biacore 4000 instrument (GE Healthcare). […] All the IL-25 reagents were expressed with a C-terminal myc-myc-hexahistidine tag (referred to herein as “IL-25-MMH”). […] Kinetic association (kₐ) and dissociation (kd) rate constants were determined by fitting the real-time sensorgrams to a 1:1 binding model using Scrubber 2.0c curve fitting software.

Test [2] concerns the target T1, human IL-25 expressed with a C-terminal …. Kind of test: SPR Biacore, captured mAb, 37°C. (In general: In SPR one partner is held on a chip, and binding of the other changes the refractive index at the surface.)
Procedure: as §1
For test [3], the target named is T2, monkey IL-25 expressed with a C-terminal myc-myc-hexahistidine tag (M. fascicularis (cynomolgus monkey)).
T2 construct: also called monkey IL-25-MMH; MfIL-25-MMH
T2 chain: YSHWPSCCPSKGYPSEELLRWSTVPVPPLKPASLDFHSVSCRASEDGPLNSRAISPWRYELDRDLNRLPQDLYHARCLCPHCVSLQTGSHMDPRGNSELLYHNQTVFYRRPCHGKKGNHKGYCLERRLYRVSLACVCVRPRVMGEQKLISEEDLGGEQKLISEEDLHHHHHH
Kind of test: SPR Biacore, captured mAb, 25°C.
Procedure: as §1

Where only a bound is given, the exact number is not on record here.
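Throughout, for 100 nM Monkey IL-25-MMH Bound (RU): Real-time surface plasmon resonance on a Biacore 4000, with IL-25-MMH binding to purified anti-IL-25 antibodies.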

B1: H4H10876P (antibody, human IgG4, V domains shown)
VH: QVQLVQSGAEVKKPGASVKVSCKASEYTFSNYGISWVRQAPGQGLEWLGWIGAYSGFTKYAQKVQDRITMTTDASTTTAYMELRNLRSDDTAVYYCARVGTGTDSYFDFWGQGTLVTVSS
VL: DIQMTQSPSSLSASVGDRVTITCRASQNINSHLNWYQQKPGKAPKLLIYTASSLQSGVPLRFSGSGSGTDFTLTISSLQPEDFGIYICQQTYITPLTFGGGTKVEIK
By Kd is commonly meant the free concentration of one partner at which half of the binding sites on the other are occupied at equilibrium, for simple one-to-one binding. For orientation: koff means the rate constant with which the complex falls apart. Broadly, the kon is the rate constant with which the complex forms. Usually t½ stands for how long it takes for the measured level to halve. Regarding B1, in test [1], the “100 nM Human IL-25-MMH Bound (RU)” value came out at 45 RU, the Kd was determined as 0.124 nM, the koff was determined as 4.78e-05 s⁻¹ and the association rate constant (kon) stood at 386000 M⁻¹ s⁻¹. Moreover, the t½ in test [1] is 4.03 h. Also, in test [2], the “100 nM Human IL-25-MMH Bound (RU)” value was 60 RU, the dissociation constant Kd is 0.0944 nM, the koff was determined as 5.93e-05 s⁻¹ and the kon was determined as 628000 M⁻¹ s⁻¹. Moreover, the t½ in test [2] was 3.25 h. In addition, in test [3], the “100 nM Monkey IL-25-MMH Bound (RU)” value was determined as 51 RU; the affinity, expressed as Kd, was 0.218 nM; the koff is 7.18e-05 s⁻¹; the association rate constant (kon) is 329000 M⁻¹ s⁻¹. This molecule also had a t½ in test [3] of 2.68 h.

B2: H4H10883P (antibody, human IgG4, V domains shown)
VH: QVQLQESGPGLVKSSETLSLTCTVSGGSISSYYWSWIRQPPGKGLEWIGFIYYSGSTNYNPSLKSRVTFSVDTSKNHFSLKLNSVTATDTAVYYCARHYFDSGTYELGPFDYWGQGTLVTVSS
VL: DIVMTQSPDSLAVSLGERATINCKSSQNILLTSSNKNYLTWYQQKPGQPPKLLIYWASIRESGVPDRFSGSGSGTDFTLTISSLQAEDVALYFCQQYYITPFTFGPGTKVDIK
Consider B2, for which, in test [1], the “100 nM Human IL-25-MMH Bound (RU)” value was determined as 56 RU, the Kd was no more than 0.0142 nM, the off-rate (koff) was no more than 1e-05 s⁻¹ and the association rate constant (kon) worked out at 706000 M⁻¹ s⁻¹. In test [1], this molecule came in with a t½ of 19.2 h. In test [2], the “100 nM Human IL-25-MMH Bound (RU)” value worked out at 74 RU, the Kd amounted to 0.0304 nM, the koff was 4.8e-05 s⁻¹ and the kon was found to be 1.58e+06 M⁻¹ s⁻¹. Moreover, the t½ in test [2] is 4.02 h. Besides, in test [3], the “100 nM Monkey IL-25-MMH Bound (RU)” value amounted to 58 RU, the Kd was no more than 0.00965 nM, the koff was no more than 1e-05 s⁻¹ and the on-rate constant (kon) worked out at 1.04e+06 M⁻¹ s⁻¹. Besides, the t½ in test [3] is 19.2 h.

B3: H4H10907P (antibody, human IgG4, V domains shown)
VH: EVQLVESGGGLVQPGGSLRLSCAASGFTFSNYDIHWVRQVPGKGLEWISTIGSAGDTFYPGSVKGRFTISRENAKNSLYLQMNSLRAGDSAVYYCARGDNWNYVSWFFDLWGRGTLVTVSS
VL: DIQLTQSPSFLSTSVGDRVTITCWASQDISSFLAWYQQKPGKAPKLLIYAASVLQSGVPSRFSGSGSGTEFTLTISSLQPEDFATYYCQQVNSYPITFGQGTRLEIK
As for B3, in test [1], the “100 nM Human IL-25-MMH Bound (RU)” value worked out at 40 RU; the affinity, expressed as Kd, was 0.0883 nM; the off-rate (koff) came to 6.5e-05 s⁻¹; the on-rate (kon) amounted to 736000 M⁻¹ s⁻¹. For the same molecule, the t½ in test [1] stood at 2.97 h. Besides, in test [2], the “100 nM Human IL-25-MMH Bound (RU)” value was found to be 47 RU, binding was put at a Kd of 0.0375 nM, the koff is 4.45e-05 s⁻¹ and the on-rate (kon) was 1.19e+06 M⁻¹ s⁻¹. For the same molecule, the t½ in test [2] is 4.32 h. Besides, in test [3], the “100 nM Monkey IL-25-MMH Bound (RU)” value was 43 RU, binding was put at a Kd of 0.0485 nM, the koff is 6.74e-05 s⁻¹ and the kon was determined as 1.39e+06 M⁻¹ s⁻¹. For the same molecule, the t½ in test [3] is 2.85 h.

B4: H4H10905P (antibody, human IgG4, V domains shown)
VH: QVQLVQSGAEVKKPGTSVKVSCKASGYTFTNYGISWVRQAPGQGLEWLGWISAYNDNTDYAQKLQARVTMTTDTFTSTAYMDLRSLRSDDTAVYYCARVPITGTTSSFDFWGQGTLVTVSS
VL: DIQMTQSPSSLSASVGDRVTISCRASQTIYSYLNWFQQKPGKAPKLLIYDASSLQSGVPSRFSGSGSGTHFTLTISSLQPEDFATYFCQQTYSTPLTFGGGTKVEIK
For the molecule B4, in test [1], the “100 nM Human IL-25-MMH Bound (RU)” value is 49 RU, the Kd was 0.228 nM, the koff turned out to be 0.000109 s⁻¹ and the kon is 478000 M⁻¹ s⁻¹. This molecule returned a t½ in test [1] of 1.77 h. Moreover, in test [2], the “100 nM Human IL-25-MMH Bound (RU)” value worked out at 55 RU, binding was characterised by a dissociation constant (Kd) of 0.149 nM, the koff came to 0.00012 s⁻¹ and the on-rate (kon) came out at 809000 M⁻¹ s⁻¹. This molecule registered a t½ in test [2] of 1.6 h. Moreover, in test [3], the “100 nM Monkey IL-25-MMH Bound (RU)” value is 54 RU, binding was put at a Kd of 0.186 nM, the koff is 7.77e-05 s⁻¹ and the kon was 417000 M⁻¹ s⁻¹. Besides, in test [3], the t½ is 2.48 h.

B5: H4H10871P (antibody, human IgG4, V domains shown)
VH: QVQLVQSGAEVMKPGASVKVSCKSSDFAFTTYGISWVRQAPGQGLEWMGWISAYNGNTNYEQRFQGRITMTTDTSTTTVYMELRSLRSDDTAVYYCARDPDYCSSNTCSDAFDLWGQGTMVTVSS
VL: DIQMTQSPSSLSASVRDRVTITCRASQGITNYLAWYQQKPGKVPKVLIYAASTLQSGVPSRFSGSGSGTEFTLAISSLQPEDVATYFCQQYGSAPWTFGQGTKVEIK
In the case of B5, in test [1], the “100 nM Human IL-25-MMH Bound (RU)” value is 38 RU, binding was characterised by a dissociation constant (Kd) of 0.0851 nM, the koff is 6.38e-05 s⁻¹ and the kon came out at 749000 M⁻¹ s⁻¹. For the same molecule, the t½ in test [1] came out at 3.02 h. Besides, in test [2], the “100 nM Human IL-25-MMH Bound (RU)” value was determined as 49 RU, the Kd came to 0.0276 nM, the koff was 3.18e-05 s⁻¹ and the kon turned out to be 1.15e+06 M⁻¹ s⁻¹. The molecule further yielded a t½ in test [2] of 6.05 h. In test [3], the “100 nM Monkey IL-25-MMH Bound (RU)” value turned out to be 42 RU; the affinity, expressed as Kd, was 0.0965 nM; the koff was determined as 6.06e-05 s⁻¹; the kon was determined as 628000 M⁻¹ s⁻¹. The molecule further registered a t½ in test [3] of 3.18 h.

B6: H2M10690N (antibody, V domains shown)
VH: QVQLVQSGAEVKKPGASVKVSCKASGYTFTSYGISWVRQAPGQGLEWMGWISAYNGNTNYAQKLQGRVTMTTDTSTSTAYMELRSLRSDDTAVYYCARVPITGTTWFDPWGQGTLVTVSS
VL: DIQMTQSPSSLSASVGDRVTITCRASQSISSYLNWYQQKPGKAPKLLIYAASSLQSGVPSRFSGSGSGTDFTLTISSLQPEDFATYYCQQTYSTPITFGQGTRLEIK
notes: also called H2aM10690N
Take B6: in test [1], the “100 nM Human IL-25-MMH Bound (RU)” value stood at 32 RU, the dissociation constant (Kd) stood at 36.2 nM, the koff is 0.0029 s⁻¹ and the association rate constant (kon) is 80200 M⁻¹ s⁻¹. In test [1], this molecule came in with a t½ of 0.0667 h. Moreover, in test [2], the “100 nM Human IL-25-MMH Bound (RU)” value was determined as 39 RU, the dissociation constant (Kd) was determined as 61.4 nM, the off-rate constant (koff) came out at 0.00844 s⁻¹ and the on-rate (kon) was 137000 M⁻¹ s⁻¹. Further, the t½ in test [2] is 0.0233 h.

B7: H4H10897P (antibody, human IgG4, V domains shown)
VH: QVQLQESGPGLVKPSETLSLTCTVSGGSISDYYWSWIRQPPGKGLEWIGHIYYSGSTNHNPSLKSRVAISVDTSKNQFSLRLYSVTAADTAVYYCARDGYSSSSGFYYFGMDVWGQGTTVTVSS
VL: DIQLTQSPSFLSASVGDRVTITCWASQDINSYLAWYQQKPGKAPKLLIFAASTLQGGVPSRFSGSGSGTEFTLTISSLQPEDFATYYCQHLSSFPPTFGQGTRLEIK
Turning to B7, in test [1], the “100 nM Human IL-25-MMH Bound (RU)” value is 39 RU, the Kd came to 0.126 nM, the off-rate (koff) came out at 7.87e-05 s⁻¹ and the kon stood at 623000 M⁻¹ s⁻¹. The molecule further had a t½ in test [1] of 2.45 h. In test [2], the “100 nM Human IL-25-MMH Bound (RU)” value is 48 RU, the Kd was found to be 0.218 nM, the koff came to 0.000226 s⁻¹ and the on-rate (kon) was 1.04e+06 M⁻¹ s⁻¹. In test [2], this molecule registered a t½ of 0.85 h. Also, in test [3], the “100 nM Monkey IL-25-MMH Bound (RU)” value worked out at 42 RU, the equilibrium dissociation constant (Kd) worked out at 0.0749 nM, the koff came out at 8.43e-05 s⁻¹ and the kon is 1.13e+06 M⁻¹ s⁻¹. The t½ in test [3] is 2.28 h.

B8: H4H10863P (antibody, human IgG4, V domains shown)
VH: QVQLVQSGAEVKKPGASVKVSCKASGYTFSSYGISWVRQAPGQGLEWMGWISAYNDNTQYAQKFQGRVTMTTDTSTSTAYMELRSLRSDDTAVYYCARVPLQWFGESFDHWGQGTLVTVSS
VL: DIQMTQSPSSLSASVGDRVTITCRASQDINNYLNWFQQKPGKAPKLLIFSTSSLQSGVPSRFSGSGSGTDFTLTISSLQSEDFATYYCQQTFITPLTFGGGTKVEIK
B8: in test [1], the “100 nM Human IL-25-MMH Bound (RU)” value amounted to 34 RU, the Kd was determined as 0.279 nM, the koff turned out to be 7.25e-05 s⁻¹ and the on-rate (kon) was found to be 260000 M⁻¹ s⁻¹. Besides, the t½ in test [1] stood at 2.65 h. Moreover, in test [2], the “100 nM Human IL-25-MMH Bound (RU)” value was determined as 46 RU, binding was put at a Kd of 0.128 nM, the koff turned out to be 7.78e-05 s⁻¹ and the kon turned out to be 606000 M⁻¹ s⁻¹. Moreover, the t½ in test [2] was found to be 2.48 h. Moreover, in test [3], the “100 nM Monkey IL-25-MMH Bound (RU)” value was 39 RU, the Kd came to 0.199 nM, the koff worked out at 6.83e-05 s⁻¹ and the kon came to 343000 M⁻¹ s⁻¹. The same molecule returned a t½ in test [3] of 2.82 h.

(Values after patent publication US20160083466A1 (Regeneron, published 2016).)
